± gives the uncertainty stated by the source.
B1: E3 ubiquitin-protein ligase Midline-1, residues 172 to 214; numbered along this chain, O15344 (parent)
chain: GLMCLEHEDEKVNMYCVTDDQLICALCKLVGRHRDHQVAALSE

Variants of: B1
Experiment: abundance fitness (aPCA) (normalised: wild type 0, dead -1); higher = more abundant; growth selection in yeast, the domain comes from the species named
Details: Homo sapiens

Point of comparison: GLMCLEHEDEKVNMYCHTDDQLICALCKLVGRHRDHQVAALSE, abundance fitness 0.29 ± 0.095. Against it:
- GLMCLEHEDEKVNMYCRTDDQLICALCKLVGRHRDHQVAALSE — within error, 0.176 ± 0.048
- GLMCLEHEDEKVNMYCNTDDQLICALCKLVGRHRDHQVAALSE — within error, 0.545 ± 0.22
- GLMCLEHEDEKVNMYCDTDDQLICALCKLVGRHRDHQVAALSE — lower, 0.113 ± 0.067
- GLMCLEHEDEKVNMYCETDDQLICALCKLVGRHRDHQVAALSE — within error, 0.135 ± 0.06
- GLMCLEHEDEKVNMYCQTDDQLICALCKLVGRHRDHQVAALSE — within error, 0.275 ± 0.065
- GLMCLEHEDEKVNMYCATDDQLICALCKLVGRHRDHQVAALSE — within error, 0.172 ± 0.049
- GLMCLEHEDEKVNMYCTTDDQLICALCKLVGRHRDHQVAALSE — lower, -0.027 ± 0.069
- GLMCLEHEDEKVNMYCGTDDQLICALCKLVGRHRDHQVAALSE — lower, 0.092 ± 0.045
- GLMCLEHEDEKVNMYCITDDQLICALCKLVGRHRDHQVAALSE — within error, 0.235 ± 0.12
- GLMCLEHEDEKVNMYCSTDDQLICALCKLVGRHRDHQVAALSE — within error, 0.174 ± 0.051
- GLMCLEHEDEKVNMYCCTDDQLICALCKLVGRHRDHQVAALSE — within error, 0.173 ± 0.072
- GLMCLEHEDEKVNMYCKTDDQLICALCKLVGRHRDHQVAALSE — within error, 0.444 ± 0.065
- GLMCLEHEDEKVNMYCYTDDQLICALCKLVGRHRDHQVAALSE — lower, -0.071 ± 0.16
- GLMCLEHEDEKVNMYCWTDDQLICALCKLVGRHRDHQVAALSE — lower, -0.176 ± 0.07
- GLMCLEHEDEKVNMYCLTDDQLICALCKLVGRHRDHQVAALSE — lower, -0.094 ± 0.061
- GLMCLEHEDEKVNMWCVTDDQLICALCKLVGRHRDHQVAALSE — lower, -0.089 ± 0.095
- GLMCLEHEDEKVNMYCVWDDQLICALCKLVGRHRDHQVAALSE — lower, -0.532 ± 0.094
- GLMCLEHEDEKVNMYCVMDDQLICALCKLVGRHRDHQVAALSE — lower, -0.394 ± 0.15
- GLMCLEHEDEKVNMYCVPDDQLICALCKLVGRHRDHQVAALSE — lower, -0.492 ± 0.14
- GLMCLEHEDEKVNMYCVQDDQLICALCKLVGRHRDHQVAALSE — lower, -0.073 ± 0.1
- GLMCLEHEDEKVNMYCVVDDQLICALCKLVGRHRDHQVAALSE — lower, -0.077 ± 0.064
- GLMCLEHEDEKVNMYCVNDDQLICALCKLVGRHRDHQVAALSE — within error, -0.048 ± 0.45
- GLMCLEHEDEKVNMYCVLDDQLICALCKLVGRHRDHQVAALSE — lower, -0.32 ± 0.066
- GLMCLEHEDEKVNMYCVDDDQLICALCKLVGRHRDHQVAALSE — lower, -0.152 ± 0.079
- GLMCLEHEDEKVNMYCVRDDQLICALCKLVGRHRDHQVAALSE — lower, -0.101 ± 0.057
- GLMCLEHEDEKVNMYCVCDDQLICALCKLVGRHRDHQVAALSE — lower, -0.256 ± 0.1
- GLMCLEHEDEKVNMYCVKDDQLICALCKLVGRHRDHQVAALSE — lower, -0.019 ± 0.063
- GLMCLEHEDEKVNMYCVYDDQLICALCKLVGRHRDHQVAALSE — lower, -0.482 ± 0.23
- GLMCLEHEDEKVNMYGVTDDQLICALCKLVGRHRDHQVAALSE — lower, -0.291 ± 0.049
- GLMCLEHEDEKVNMYKVTDDQLICALCKLVGRHRDHQVAALSE — lower, -0.298 ± 0.18
- GLMCLEHEDEKVNMYAVTDDQLICALCKLVGRHRDHQVAALSE — lower, -0.569 ± 0.087
- GLMCLEHEDEKVNMYSVTDDQLICALCKLVGRHRDHQVAALSE — lower, -0.14 ± 0.11
- GLMCLEHEDEKVNMYWVTDDQLICALCKLVGRHRDHQVAALSE — lower, -1.19 ± 0.21
- GLMCLEHEDEKVNMYRVTDDQLICALCKLVGRHRDHQVAALSE — lower, -0.469 ± 0.062
- GLMCLEHEDEKVNMYPVTDDQLICALCKLVGRHRDHQVAALSE — lower, -0.289 ± 0.065
- GLMCLEHEDEKVNMYYVTDDQLICALCKLVGRHRDHQVAALSE — lower, -0.624 ± 0.28
- GLMCLEHEDEKVNMYQVTDDQLICALCKLVGRHRDHQVAALSE — lower, -0.219 ± 0.076
- GLMCLEHEDEKVNMYIVTDDQLICALCKLVGRHRDHQVAALSE — lower, -0.127 ± 0.24
- GLMCLEHEDEKVNMYMVTDDQLICALCKLVGRHRDHQVAALSE — lower, -0.674 ± 0.43
- GLMCLEHEDEKVNMYNVTDDQLICALCKLVGRHRDHQVAALSE — lower, -0.183 ± 0.14
- GLMCLEHEDEKVNMYHVTDDQLICALCKLVGRHRDHQVAALSE — lower, -0.215 ± 0.12
- GLMCLEHEDEKVNMYVVTDDQLICALCKLVGRHRDHQVAALSE — lower, -0.725 ± 0.096
- GLMCLEHEDEKVNMYTVTDDQLICALCKLVGRHRDHQVAALSE — lower, -0.351 ± 0.1
- GLMCLEHEDEKVNMYEVTDDQLICALCKLVGRHRDHQVAALSE — lower, -0.185 ± 0.065
- GLMCLEHEDEKVNMYCVTLDQLICALCKLVGRHRDHQVAALSE — lower, -1.04 ± 0.22
- GLMCLEHEDEKVNMYCVTQDQLICALCKLVGRHRDHQVAALSE — lower, -0.557 ± 0.14
- GLMCLEHEDEKVNMYCVTADQLICALCKLVGRHRDHQVAALSE — lower, -0.928 ± 0.088
- GLMCLEHEDEKVNMYCVTMDQLICALCKLVGRHRDHQVAALSE — lower, -1.1 ± 0.19
- GLMCLEHEDEKVNMYCVTGDQLICALCKLVGRHRDHQVAALSE — lower, -0.72 ± 0.087
- GLMCLEHEDEKVNMYCVTEDQLICALCKLVGRHRDHQVAALSE — lower, -0.012 ± 0.052
- GLMCLEHEDEKVNMYCVTSDQLICALCKLVGRHRDHQVAALSE — lower, -0.377 ± 0.096
- GLMCLEHEDEKVNMYCVTFDQLICALCKLVGRHRDHQVAALSE — lower, -0.218 ± 0.27
- GLMCLEHEDEKVNMYCVTHDQLICALCKLVGRHRDHQVAALSE — lower, -0.496 ± 0.16
- GLMCLEHEDEKVNMYCVTCDQLICALCKLVGRHRDHQVAALSE — lower, -0.175 ± 0.14
- GLMCLEHEDEKVNMYCVTRDQLICALCKLVGRHRDHQVAALSE — lower, -0.65 ± 0.073
- GLMCLEHEDEKVNMYCVTPDQLICALCKLVGRHRDHQVAALSE — lower, -0.723 ± 0.16
- GLMCLEHEDEKVNMYCVTNDQLICALCKLVGRHRDHQVAALSE — lower, -0.095 ± 0.22
- GLMCLEHEDEKVNMYCVTKDQLICALCKLVGRHRDHQVAALSE — lower, -0.759 ± 0.18

Source: the Human Domainome abundance scans (Beltran et al. 2025)
